This note sets out measurements from the supplement of paper PMC9170038.

The subject of the data set is MS2 coat protein. Kind of data set: apparent KD of MS2 coat protein; higher = weaker reporter binding. The conditions noted are these: Eterna round: R107. The method, boiled down: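 Designed RNA switches were transcribed on-chip from Illumina sequencing clusters. They were then titrated with SNAP-549-labelled MS2 coat protein (twofold steps, 0.7 or 1.5 nM to 3 µM; 0.8–1.5 h to 10–20 min per step) in 100 mM Tris-HCl pH 7.5, 80 mM KCl, 4 mM MgCl2, without or with constant ligand. Apparent KD is the per-design median of normalised cluster binding-curve fits.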

Setting [1] is: input ligand: theophylline 20 uM.
Setting [2] is: input ligand: tryptophan 2.4 mM.
[3] abbreviates: input ligand: theophylline 2 mM.

As to “AGCGACAUGCGUGAUACCAGCUACAUGAGGAUCACCCAUGUGAGUAGGAAACUACUGUGUAGCCCUUGGCAGCACAGUGCAUGUC [Exclusion - Theophylline B (Freestyle 25)]”, the “apparent KD of MS2 coat protein” value reads like this: (input ligand: arginine 13.2 mM) 11.4 nM; under setting [1], 15.9 nM; under setting [2], 10.3 nM.
As to “AGCGGCUCGAAAGAGUCGCACUCAUGUGAAGGAGCGCCCGUAAGGGCAGGUAGGUCGCACAUGAGGAUCACCCAUGUACCUUCUA [MAT - Exclusion Arginine A - Mod of Eli - D20]”, the “apparent KD of MS2 coat protein” value by setting is: (input ligand: arginine 13.2 mM) 87.1 nM; (input ligand: none) 205 nM; under setting [1], 255 nM; under setting [3], 316 nM; under setting [2], 241 nM.
The corresponding values for “AGCUCGCAUCCUCAAAGCGUCAAAGACGCACGAGGACCGGUACGGCCGCCACUCGACCUGAGGAUCACCCUGGUCUAAGCGAGCA [TrypAX 9 #SwitchBubble #AlternativeMS2 #MS2Late #CuTurnoff]” are 29.7 nM, 36.2 nM, 49.2 nM, 48.8 nM and 381 nM.
The corresponding values for “AGCUCGCAUCCUCAAGCGUCAAAGACGCGUCGAGGACCGGUACGGCCGCCACUCGACAAGAGGAUCACCCUUGUCUAAGCGAGCA [TrypAX 4 #SwitchBubble #AlternativeMS2 #MS2Late #CuTurnoff]” are 73.3 nM, 195 nM, 182 nM, 264 nM and 254 nM.
With “AGUCUAUGGAGAGAUACCAGUGAGAGCCAUAGACAUGAGGAUCACCCAUGUGACAUGGAUCACCCUUGGCAGCUCAACGAGCUCU [#20 Same State - Theophylline B]”, the “apparent KD of MS2 coat protein” value is, setting by setting: (input ligand: arginine 13.2 mM) 41 nM; under setting [1], 106 nM; under setting [2], 87.1 nM.
For “AGUUCCAGGUCGGCCGCCACUGGCGUGGCCGGUCCUCGGACUUACAUGAGGAUCACCCAUGUGAACAGGACCGGGACCGCAUGGG [Exclusion Tryptophan B GF 25]”, the “apparent KD of MS2 coat protein” value reads like this: (input ligand: arginine 13.2 mM) 30 nM; under setting [1], 46 nM; under setting [3], 48.4 nM.
The like results for “AUAAAAGGGUUAUAUAGAUUUAGGUCCAGUCGAGGACCGGUACGGCCGCCACUCGUACUGAAAUACAUGAGGAUCACCCAUGUUA [JR_SSTryptoA_Sub006]” were, in that order, 16.4 nM, 25.8 nM and 22.9 nM.
For “AUAACAUGAGGAUCACCCAUGUAAGCUGAAGGAGCGGACGAAAGUCCAGGUAGGUCGCAGCACUCCUUCAACAUGGGAGAGGGAG [(M1)-(M2)-(Arg1)-(Arg2)-(A)'-(M)'-(A)''_Design1]”, the “apparent KD of MS2 coat protein” value is, setting by setting: (input ligand: arginine 13.2 mM) 39.9 nM; (input ligand: none) 64.2 nM; under setting [1], 59.8 nM; under setting [3], 72.5 nM; under setting [2], 53.2 nM.
As to “AUAACAUGAGGAUCACCCAUGUAGAGUGAUACCAGACUACGUAAUGUCCCUUGGCAGCACAAGUAAAGUUACGAAUAUUGAUAGA [JR_SSTheophyA_Sub003]”, the “apparent KD of MS2 coat protein” value turned out to be 123 nM (input ligand: arginine 13.2 mM), 198 nM under setting [1] and 143 nM under setting [2].
As for “AUAAGUAAUGUUACGUGUUUAAUUGCAGAUACCAGACUAUACGUUGUCCCUUGGCAGCUGAAUUACAUGAGGAUCACCCAUGUUG [JR_ExcTheophyA_Sub005]”, the “apparent KD of MS2 coat protein” value (input ligand: arginine 13.2 mM) was 19.4 nM, the “apparent KD of MS2 coat protein” value under setting [1] worked out at 28.5 nM and the “apparent KD of MS2 coat protein” value under setting [2] was 25.7 nM.
The like results for “AUAAUGGGUAUCGGAUUAUCAUGAUAUGAUACCAGAUACUUAGAUAUCCCUUGGCAGCAUGAGGACAUGAGGAUCACCCAUGUAU [#04 Exclusion-TheophyllineA]” were, in that order, 32.1 nM, 50.3 nM and 39.9 nM.
For the sequence “AUACAUGAGGAUCACCCAUGUAUGGAUGAAGGAGCGACCAGAGGGUCAGGUAGGUCGCAUCACAUGAGGAUCACCCAUGUAGAAA [DOUBLE!!! :-D #11]”, the “apparent KD of MS2 coat protein” value runs as follows: (input ligand: arginine 13.2 mM) 20.3 nM; (input ligand: none) 23.4 nM; under setting [1], 25.2 nM; under setting [3], 26.1 nM; under setting [2], 24 nM.
For “AUACAUGAGGAUCACCCAUGUCAUUCAGAAGGAGCGUCAUUUUAGACAGGUAGGUCGCUGUUAUUGGUAUUAUACUUUAUGUUUA [JR_ExcArginiA_Sub024]”, the “apparent KD of MS2 coat protein” value was 20.1 nM (input ligand: arginine 13.2 mM); 22.9 nM (input ligand: none); 34.9 nM under setting [1]; 24.7 nM under setting [3]; 28.9 nM under setting [2].
Consider “AUACCUAUUGAGUCGUGUUUCUAUUCAGAUACCAGACUUUUCGUUGUCCCUUGGCAGCUGUUUUACAUGAGGAUCACCCAUGUUG [JR_ExcTheophyA_Sub006]”, for which the “apparent KD of MS2 coat protein” value reads like this: (input ligand: arginine 13.2 mM) 14.6 nM; under setting [1], 18.3 nM; under setting [2], 15 nM.
Consider “AUCCUUAAUAGGGUAAAUGGAUAAAGUGAUACCAGUCAAAUACAAGACCCUUGGCAGCACAAGGACAUGAGGAUCACCCAUGUCA [Same State Theophylline A GF21]”, for which the “apparent KD of MS2 coat protein” value worked out at 20.9 nM (input ligand: arginine 13.2 mM), 22 nM under setting [1] and 21.6 nM under setting [2].
The like results for “AUCGUACCUCAUGAUACCAGCAUGUGAUCAUAACAUGAGGAUCACCCAUGUAAUCAGUGAUGCCCUUGGCAGCGUAGUCGAUACA [Same State - Theophylline B (Freestyle 8)]” were, in that order, 76.3 nM, 161 nM and 123 nM.
The corresponding values for “AUCGUACCUGAGGAUACCAGCAUGUGAUCAUAACAUGAGGAUCACCCAUGUAAUCAGUGAUGCCCUUGGCAGCUUGAUCGGUACA [Same State - Theophylline B (Freestyle 11)]” are 53.4 nM, 83.6 nM and 63.8 nM.
The like results for “AUCGUACCUGAUGAUACCAGCAAUUGCUCGUGACAUGAGGAUCACCCAUGUGACCAGUGAUGCCCUUGGCAGCAUGGUCGGUGCA [Same State - Theophylline B (Freestyle 22)]” were, in that order, 42.8 nM, 79.3 nM and 69.5 nM.
As for “AUGACUAACAAAGAAGAUAAAAUGGGUGAACGAGGACCGGUACGGCCGCCACUCGGACAUGAGGAUCACCCAUGUCCAUGUGCAA [#23 Exclusion Tryptophan A]”, the “apparent KD of MS2 coat protein” value reads like this: (input ligand: arginine 13.2 mM) 15.6 nM; under setting [1], 21.7 nM; under setting [3], 20.4 nM.
With “AUGCGGUGCGGAAGGAGCGAGUUUGCCUAUUUACAUGAGGAUCACCCAUGUCCUAAUGGGACUCAGGUAGGUCGCCGUUGUCGCA [Same State Arginine B GF 29]”, the “apparent KD of MS2 coat protein” value reads like this: (input ligand: arginine 13.2 mM) 47.7 nM; (input ligand: none) 45.5 nM; under setting [1], 65.5 nM; under setting [3], 49.9 nM; under setting [2], 52.1 nM.
“AUGCUUAUCAGAAGGAGCGUCAUUAACAUGAGGAUCACCCAUGUAACAUUGAAUUCGAUGAGACAGGUAGGUCGCUGAAUAGUAA [SS-ArgB27]”: the “apparent KD of MS2 coat protein” value came out at 28 nM (input ligand: arginine 13.2 mM); 45.1 nM (input ligand: none); 51.5 nM under setting [1]; 41.3 nM under setting [3]; 37.5 nM under setting [2].
The corresponding values for “AUGCUUGUCAGAAGGAGCGUCUUUAACAUGAGGAUCACCCAUGUAUCAUGGAAUUUGAUGAGACAGGUAGGUCGCUGAAUAGUAA [JR_SSArginiB_Sub021]” are 30 nM, 29.8 nM, 42.7 nM, 34.5 nM and 25.7 nM.
As to “AUGGACGACGAUCUGGGAAAACCAGAUCGACGAGGACCGGUACGGCCGCCACUCGUGUUUAUUUAACAUGAGGAUCACCCAUGUA [#13 Tryptophan A Same State]”, the “apparent KD of MS2 coat protein” value was found to be 34 nM (input ligand: arginine 13.2 mM), 55.7 nM under setting [1] and 65.5 nM under setting [3].
For the sequence “AUGUCAUUGGUGUAGCUGUGAAGUGGCGAUACCAGCGUGGAAACACGCCCUUGGCAGCGCCAAAACAUGAGGAUCACCCAUGUUA [#23 Exclusion-TheophyllineA]”, the “apparent KD of MS2 coat protein” value is, setting by setting: (input ligand: arginine 13.2 mM) 19 nM; under setting [1], 56.3 nM; under setting [2], 22.9 nM.
In the case of “AUGUCCUAAACGGCCGCCACUUACAUGAGGAUCACCCAUGUUUACCGAUAUGGUUGUUGCUUUCCAAGGACCGGGUUUAAUCUGC [theeternabot_exclusion_MS2_Trp_B_49]”, the “apparent KD of MS2 coat protein” value by setting is: (input ligand: arginine 13.2 mM) 13.1 nM; under setting [1], 14.9 nM; under setting [3], 12.7 nM.
Consider “AUGUCGUUGAAUAUAGCGGCUUGGAGUGAUACCAGAAUGAUCUAAUUCCCUUGGCAGCAUUACAUGAGGAUCACCCAUGUUCCAG [SSTheo A #22]”, for which the “apparent KD of MS2 coat protein” value (input ligand: arginine 13.2 mM) stood at 27.8 nM, the “apparent KD of MS2 coat protein” value under setting [1] was determined as 57.4 nM and the “apparent KD of MS2 coat protein” value under setting [2] was 55.5 nM.
Consider “AUUAACUGGUAAGAUACCAGAGUCGGGAUCUACAUGAGGAUCACCCAUGUUCUAAAGUCGCUCCCUUGGCAGCUUCAAUGAGUCG [theeternabot_sameState_MS2_Theo_B_27]”, for which the “apparent KD of MS2 coat protein” value stood at 23.3 nM (input ligand: arginine 13.2 mM), 45.9 nM under setting [1] and 34 nM under setting [2].
Consider “AUUAAUUGUCGUGAUACCAGACUUACAUGAGGAUCACCCAUGUUACUUAAGAUUUUUGUUGUCCCUUGGCAGCACUUUUUAAUUA [JR_Nu_ExcTheophyB_Sub024]”, for which the “apparent KD of MS2 coat protein” value was determined as 24.5 nM (input ligand: arginine 13.2 mM), 33 nM under setting [1] and 23.3 nM under setting [2].
Take “AUUCAGAGAUCACAUGAGGAUCACCCAUGUCGAGGACCGGUACGGCCGCCACUCGCGGCGGUGAAAAUAGAUACAAAGUAUCUAU [Ex_TrypA - Vienna approves #2]”: the “apparent KD of MS2 coat protein” value (input ligand: arginine 13.2 mM) turned out to be 25.5 nM; the “apparent KD of MS2 coat protein” value (input ligand: none) is 50 nM; the “apparent KD of MS2 coat protein” value under setting [1] came to 61.8 nM; the “apparent KD of MS2 coat protein” value under setting [3] came out at 45.9 nM; the “apparent KD of MS2 coat protein” value under setting [2] stood at 284 nM.
Turning to “AUUGCGAGUGAGUCGUGUAACGAUUCAGAUACCAGGCAUUUCGUUGUCCCUUGGCAGCUGUCUUACAUGAGGAUCACCCAUGUUA [#29 Exclusion-TheophyllineA]”, the “apparent KD of MS2 coat protein” value (input ligand: arginine 13.2 mM) stood at 23.8 nM, the “apparent KD of MS2 coat protein” value under setting [1] is 54.8 nM and the “apparent KD of MS2 coat protein” value under setting [2] was 56.3 nM.
“CAAAAUAUAACGGCCGCCACUUACUCAUGAGGUAACAACAUGAGGAUCACCCAUGUUUGAGGAUCAAGGACCGGGUUAUAUUUUG [AstrosSSTry#21]”: the “apparent KD of MS2 coat protein” value is, setting by setting: (input ligand: arginine 13.2 mM) 24.7 nM; under setting [1], 34.9 nM; under setting [3], 33 nM.
Take “CAAACAUGAGGAUCACCCAUGUAAUCAGAUACCAGUGACGAAAGUCACCCUUGGCAGCUGAUUACUUUAGUUCUAAGGUGUUUGA [EThA NP+V+V2 #5 +-Same Structure]”: the “apparent KD of MS2 coat protein” value was determined as 53.6 nM (input ligand: arginine 13.2 mM), 116 nM under setting [1] and 38.7 nM under setting [2].
